Test results: the supplement of paper PMC9170038

Tested on: MS2 coat protein
Test: apparent KD of MS2 coat protein; higher = weaker reporter binding
Conditions: Eterna round: R107
Summary of the method: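 Titrations with SNAP-549-labelled MS2 coat protein ran in twofold steps from 0.7 or 1.5 nM to 3 µM, each step taking 0.8–1.5 h at the start and 10–20 min toward the end. The targets were designed RNA switches transcribed on-chip from Illumina sequencing clusters, held in 100 mM Tris-HCl pH 7.5, 80 mM KCl, 4 mM MgCl2, without or with constant ligand. Apparent KD was taken per design as the median of normalised cluster binding-curve fits.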

[1] = input ligand: theophylline 20 uM
[2] = input ligand: theophylline 2 mM
[3] = input ligand: tryptophan 2.4 mM

Row | Sequence | apparent KD of MS2 coat protein (input ligand: arginine 13.2 mM) | apparent KD of MS2 coat protein [1] | apparent KD of MS2 coat protein [2] | apparent KD of MS2 coat protein (input ligand: none) | apparent KD of MS2 coat protein [3]
1 | GGGAGGGAGGCGGCCGCCACUGAUUUUCAUAUAUAUAUAACAUGAGGAUCACCCAUGUGGAUAUACAGGACCGGGCCUUUUUUUU [aaaH] | 17.6 nM | 30.1 nM | 19.1 nM |  | 
2 | GCAUCCUAGUCGGCCGCCACUGCAAUUGUAGUACUGCUACAUGAACAUGAGGAUCACCCAUGUAGCAGGACCGGGACUAGGAUGC [(Trp1)-(TM)''-(TM)'-(Ms2)-(Trp2)_Design10] | 44.4 nM | 78.5 nM | 68.5 nM |  | 
3 | AACAUGAGGAUCACCCAUGUCUGAACUGAAGGAGCGCUAAAUAAGGCAGGUAGGUCGCGGAAUUUUGUGUGCAUAUGCAUAUGGG [9.I] | 28.1 nM | 32.6 nM | 29.8 nM | 30.3 nM | 23.8 nM
4 | ACAUGAGGAUCACCCAUGUAAGAUUCAGAAGGAGCGGGAAAUAACCCAGGUAGGUCGCUGAAGUUUGGUUUAUUGUGUUCGUGAA [#07 Exclusion - Arginine A] | 10.2 nM | 13.3 nM | 11.5 nM | 10.4 nM | 11.5 nM
5 | CUUCAGGGUGCGGCCGCCACUUAUUAGGUGCUUGCGACGCCAGCACAUGAGGAUCACCCAUGUUCAAGGACCGGGCACCACCUUU [theeternabot_sameState_MS2_Trp_B_21] | 8.14 nM | 20 nM | 15.1 nM |  | 
6 | UUUUUCAUAGGUUAUAGUUAAGAAACUGAAGGAGCGUGGUAAUACACAGGUAGGUCGCAGAUUUUACAUGAGGAUCACCCAUGUU [JR_SSArginiA_Sub009] | 27.8 nM | 31.9 nM | 21.5 nM | 34.9 nM | 36.4 nM
7 | UGUCGAAACUGAAGGAGCGAGAUGACAAACAUGAGGAUCACCCAUGUUAUGGGUUGUUAAUCUCAGGUAGGUCGCAGUGACAAAA [Same State Arginine B GF 16] | 88.2 nM | 86.8 nM | 150 nM | 106 nM | 103 nM
8 | UGUAUGUGAUUUGAUACCAGACCAGCUGGUGGUACUUGAGGAUCACCCAGGUAGGUUUGGGUCCCUUGGCAGCAAAUCGCAUACU [SS Theo B #24 Ms12] | 293 nM | 731 nM | 408 nM | 512 nM | 1310 nM
9 | UCAUUUGAGUGAGAUGUAAGGUAUCAUGAUACCAGUAGAUAAUUAUACCCUUGGCAGCAUGACAUGAGGAUCACCCAUGUACAUG [Ad] | 9.28 nM | 11.1 nM |  |  | 12.3 nM
10 | GGGCGCUAUCCCGCGAGGGAUAGCGUUCGUCGAGGACCGGUACGGCCGCCACUCGAACGAGUGGUGACAUGAGGAUCACCCAUGU [Oaa] | 39 nM | 55.2 nM | 55.7 nM |  | 
11 | CGCGGACCACCUGAUACCAGCGCAGUCAUGCAUGAACCCAACAUGAGGAUCACCCAUGUACGCCCUUGGCAGCAGGGAAAAGUCG [theeternabot_exclusion_MS2_Theo_B_8] | 76.4 nM | 223 nM |  |  | 163 nM
12 | GCAUCCUAGUCGGCCGCCACUGCAUGUAGGCAGUGCUGCUACAAACAUGAGGAUCACCCAUGUAGCAGGACCGGGACUAGGAUGC [(Trp1)-(MT2)''-(T1)'-(MT2)'-(Ms2)-(Trp2)_Design2] | 13 nM | 18.5 nM | 15.6 nM |  | 
13 | AACAGGGCUUCCACGAAGCCCUAAGGUGAUACCAGCACAUGUAAGUGCCCUUGGCAGCACGGUACAUGAGGAUCACCCAUGUAGA [Gerara] | 19.9 nM | 237 nM |  |  | 24.3 nM
14 | GGCACAUAGUCGGCCGCCACUAGAUUUUAGUGGAAUAACAUGAGGAUCACCCAUGUAUUUGGGACUAGGACCGGGACUAUGUGCC [Hyena] | 34.5 nM | 43.2 nM | 38 nM |  | 
15 | GAGGGUGAGCCUCUGGUCCGUUUGACGGAUACCAGCGAGAGGUCUCGCCCUUGGCAGCCGACGACAUGAGGAUCACCCAUGUUAA [#09 Exclusion-TheophyllineA] | 17.3 nM | 21.4 nM | 19.2 nM | 17.1 nM | 15.7 nM
16 | AGAGUCAGACAAAAGUCUGGCUCAGCCGAAGGAGCGUCCGAAAGGACAGGUAGGUCGCGGUUACAUGAGGAUCACCCAUGUUCCU [ArgAS 7 #OpenEnded] | 66.8 nM | 177 nM | 184 nM | 136 nM | 145 nM
17 | CAUAUAUAUUGAAGGAGCGACAUGAGGAUCACCCAUGUCUACCACGUCGAAAGACGCUCAUGUCAGGUAGGUCGCAAUAUAUAUG [Astros-Eli-mod5] | 41.5 nM | 86.2 nM | 144 nM | 124 nM | 106 nM
18 | AUAAAUAUAACCGAUACCAGCCUUAUACAUGAGGAUCACCCAUGUUAUGCUUCCUUUUUUGGCCCUUGGCAGCGGAAAUGGGUAA [AstrosSSTheB#2] | 47.6 nM | 65.8 nM |  |  | 65.3 nM
19 | AGUUGACAAAAGUCAGCAACAUGAUCCGAAGGAGCGGGCGAAAGCCCAGGUAGGUCGCGGACAUGAGGAUCACCCAUGUCUCCUU [ArgAX 3 #OpenEnded #Sliding] | 46.6 nM | 70.6 nM | 100 nM | 74.3 nM | 63.9 nM

Row | Sequence | apparent KD of MS2 coat protein (input ligand: arginine 13.2 mM) | apparent KD of MS2 coat protein [1] | apparent KD of MS2 coat protein [2] | apparent KD of MS2 coat protein (input ligand: none) | apparent KD of MS2 coat protein [3]
20 | AUGCAGAACACGGCCGCCACUCAUUGUAGACAUGAGGAUCACCCAUGUAAUAGGGAUAUUUUAUUGAGGACCGGGUGUAAUGCAA [JR_SSTryptoB_Sub013] | 34.5 nM | 77.6 nM | 59.5 nM |  | 
21 | GUACAUGAGGAUCACCCAUGUAUAGUUGAAGGAGCGACCAGAGGGUCAGGUAGGUCGCAGCACAUGGUGAAAACCCGUGUAUGCC [#1 Exclusion - Arginine A Attempt #21 (Inspired by Pi)] | 40.4 nM | 61.7 nM | 49.1 nM | 33.4 nM | 27.6 nM
22 | AGCGAUUUCGGAAGGAGCGGUACAUGAGGAUCACCCAUGUAUUCAAUCGUGAUCGGCGCGUGCCAGGUAGGUCGCCGAAGGCGUC [Veatat] | 12.4 nM | 14.9 nM | 10.9 nM | 9.95 nM | 11.9 nM
23 | AUAACAUGAGGAUCACCCAUGUAAGGUGAUACCAGACGAAGUAAAGUCCCUUGGCAGCACAAGUAAAGUUACGAAUAUUGAUAGA [JR_SSTheophyA_Sub004] | 62.2 nM | 416 nM |  |  | 634 nM
24 | AUAAGUAAUGUUACGUGUUUUAUUACAGAUACCAGACUAUACGUUGUCCCUUGGCAGCUGAAUUACAUGAGGAUCACCCAUGUUG [JR_ExcTheophyA_Sub004] | 15.9 nM | 18.4 nM |  |  | 15.1 nM
25 | UCCUGCAGAGCGGCCGCCACUGUGUUGCGUGAGGAUGACCCAACAUGAGGAUCACCCAUGUUGUUUAGGACCGGGCUUGCCUCGA [xcmulliny] | 12 nM | 17.2 nM | 15.5 nM |  | 
26 | GCGUUGGCCACGGCCGCCACUCAGGUACCGCGCGUAGUGAACUUACAUGAGGAUCACCCAUGUCUGAGGACCGGGUGGCCGCCAC [theeternabot_sameState_MS2_Trp_B_27] | 31.7 nM | 70.3 nM | 46.1 nM |  | 
27 | UUCAGUACAACAGAUACCAGACAGUACUCUAAAUUGCAACAUGAGGAUCACCCAUGUAUAGUCCCUUGGCAGCUGUAAUGGGUGA [Theo B SS s2] | 150 nM | 159 nM |  |  | 70.8 nM
28 | CAAUAAGUAACUGAUACCAGUGUACUGACAUGAGGAUCACCCAUGUUGGGUUUUGUUGUACACCCUUGGCAGCAGAAUCUUAUUG [AstrosExyTheB#12] | 44.2 nM | 67.2 nM |  |  | 55.4 nM
29 | UGUACCAUGUCGGCCGCCACUCAUGAUAAACCUGAGGAUCACCCUGGUAGCGUCAAAGACGCUAUGAGGACCGGGACAUGGUACU [TryBS Zipper 2] | 29.7 nM | 35.2 nM | 33 nM | 24.4 nM | 20.5 nM
30 | UACCCAUAGGGAAGGAGCGCGCUAACAUGAGGAUCACCCAUGUAAAGGGUUUCUGGCUUAGCGCAGGUAGGUCGCCCUAUGGGUA [#10 Exclusion - Arginine B] | 196 nM | 400 nM | 1050 nM | 238 nM | 654 nM
31 | UGACAUUGCUCAGAUACCAGACGUGAGGAUCACCCACGUGCCAACAAGUACAUAAUAAAUGUCCCUUGGCAGCUGAGCAAUGUCU [TheoBX 17 #MS2Left #Theo2 #AlternativeMS2] | 16.4 nM | 15.2 nM | 15.1 nM | 11.2 nM | 10.9 nM
32 | AACAGGGUCUGAAGGAGCGCGAUCACAUGAGGAUCACCCAUGUGAAAUGGUAGAUGAUACUCGCAGGUAGGUCGCAGUACUUGAC [Same State Arginine B GF 15] | 54.2 nM | 127 nM | 82.4 nM | 33.6 nM | 28.4 nM
33 | UCCACACAUGAGGAUCACCCAUGUUGAGAUACCAGUAAACCAAAAUACCCUUGGCAGCUCCUACGCUCUUACAGCGGGAAUAUCC [theeternabot_sameState_MS2_Theo_A_46] | 14.3 nM | 19.5 nM |  |  | 14.9 nM
34 | AGCACGGUGAUGGUAGCCGGACGCUAAGUACGAGGACCGGUACGGCCGCCACUCGGAGUCCUACGACAUGAGGAUCACCCAUGUA [Same State Trp A GF12] | 34.3 nM | 50 nM | 42.6 nM | 34.9 nM | 33.6 nM
35 | UGCUACAUGAGGAUCACCCAUGUGGGUGAUACCAGCAUUCGUUUAUGCCCUUGGCAGCGCAGCCGAACCAAUCAUUCGGCAGAAA [Artiusar] | 21 nM | 201 nM | 861 nM | 23 nM | 81 nM
36 | AACGUAUACAGAAGGAGCGUGAAUUAUAUUACUCAUUCAUAUACAUGAGGAUCACCCAUGUCACAGGUAGGUCGCUGUAUUCGUA [JR_ExcArginiB_Sub020] | 55.9 nM | 92 nM | 86.9 nM | 82.2 nM | 65.4 nM
37 | CAUAAUUUAUCCUAUAAAACUAUUAGUGAUACCAGCACCUCAUGAUGCCCUUGGCAGCACUUACAUGAGGAUCACCCAUGUUUUA [JR_NU_SSTheophyA_Sub029] | 99.6 nM | 223 nM |  |  | 158 nM
38 | AGGUGCUGAUCGGCCGCCACUGAGAGGACGUGAACUUUAGCUGGUUACAUGAGGAUCACCCAUGUCAGGACCGGGAUUAGUUUGC [Quleorla] | 11.3 nM | 17.4 nM | 10.7 nM |  | 
